Measured values as given in US20260055201A1 (SHENGHE CHINA BIOPHARMACEUTICAL, published 2026).

T1: human TNFR2 on TNFR2-CHO-K1 cells (human, UniProt P20333 23-461)
T1 construct: CHO cells overexpressing human TNFR2 by lentiviral transduction
T1 sequence: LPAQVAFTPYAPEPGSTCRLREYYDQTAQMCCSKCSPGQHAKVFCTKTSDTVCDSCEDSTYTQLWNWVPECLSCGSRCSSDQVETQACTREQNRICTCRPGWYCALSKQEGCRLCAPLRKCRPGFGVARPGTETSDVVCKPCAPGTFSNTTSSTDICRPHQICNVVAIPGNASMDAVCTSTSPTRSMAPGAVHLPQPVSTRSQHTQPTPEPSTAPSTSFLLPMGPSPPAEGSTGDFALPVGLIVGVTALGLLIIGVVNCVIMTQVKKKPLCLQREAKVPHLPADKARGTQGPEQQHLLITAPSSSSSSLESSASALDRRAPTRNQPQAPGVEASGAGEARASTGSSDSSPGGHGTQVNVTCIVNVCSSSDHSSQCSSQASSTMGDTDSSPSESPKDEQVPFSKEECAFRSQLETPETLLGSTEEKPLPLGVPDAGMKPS

T2: Human TNFR2 His (manufacturer: SINO, CAT: 10417-H08H) (human, UniProt P20333 23-257)
T2 construct: Bought protein; also called human TNFR2 protein; TNFR2 protein; not shown: His tag
T2 sequence (looked up): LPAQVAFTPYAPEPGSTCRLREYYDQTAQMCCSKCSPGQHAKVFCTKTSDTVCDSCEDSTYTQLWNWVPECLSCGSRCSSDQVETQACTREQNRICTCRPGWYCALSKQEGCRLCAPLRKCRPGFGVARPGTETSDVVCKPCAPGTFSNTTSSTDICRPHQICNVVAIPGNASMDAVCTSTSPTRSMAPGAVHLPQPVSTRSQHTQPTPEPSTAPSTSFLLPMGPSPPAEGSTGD

T3: Human TNFR2 mFc (manufacturer: Kaixia, CAT: TN-HM3R2) (human, UniProt P20333 23-257)
T3 construct: treated as one molecule; also called Human TNFR2 mFC (KaKa, CAT: TNF-HM3R2); human TNFR2 mFC protein; not shown: mFc part
T3 sequence (looked up): T2 sequence (looked up)

B1: TR-F (bispecific antibody, human IgG1, kappa)
light: EVQLVQSGAEVKKPGATVKISCKVSGYSITDYLLHWVQQAPGKCLEWMGWIDPEDAKTKYGQKFQSRVTITADTSTDTAYMELSSLRSEDTAVYYCAANSGTGTMDAWGQGTLVTVSSGGGGSGGGGSGGGGSDIVMTQSPATLSVSPGERATLSCKASQNVGSNVDWYQQKPGQSPRVLIYKASIRYTGIPARFSGSGSGTEFTLTISILQSEDFAVYFCMQSKSYPITFGCGTKLEIKGGGGSGGGGSGGGGSDIVMTQSPPTLSLSPGERATLSCRSSKSLLHSNGNTYLYWFQQKPGQSPQLLIYRMSNLASGIPDRFSGSGSGTDFTLTISRLEPEDFAVYYCMQHLEYPFTFGQGTKLEIKRTVAAPSVFIFPPSDEQLKSGTASVVCLLNNFYPREAKVQWKVDNALQSGNSQESVTEQDSKDSTYSLSSTLTLSKADYEKHKVYACEVTHQGLSSPVTKSFNRGEC
heavy: not shown
notes: also called antibody TR-F
B2: TR-G (bispecific antibody, human IgG1, kappa)
light: DIVMTQSPPTLSLSPGERATLSCRSSKSLLHSNGNTYLYWFQQKPGQSPQLLIYRMSNLASGIPDRFSGSGSGTDFTLTISRLEPEDFAVYYCMQHLEYPFTFGQGTKLEIKRTVAAPSVFIFPPSDEQLKSGTASVVCLLNNFYPREAKVQWKVDNALQSGNSQESVTEQDSKDSTYSLSSTLTLSKADYEKHKVYACEVTHQGLSSPVTKSFNRGECGGGGSGGGGSEVQLVESGGGLVQPGGSLRLSCAASGSRLDYYAVAWFRQAPGKEREEVSCITYSGGSTNYAESVKGRFTISRDNSKNTLYLQMNSLRAEDTAVYYCTTEPYGSSCPLSGYDTWGQGTLVTVSS
heavy: not shown
notes: also called antibody TR-G
B3: TR-H (bispecific antibody, human IgG1, kappa)
light: EVQLVESGGGLVQPGGSLRLSCAASGSRLDYYAVAWFRQAPGKEREEVSCITYSGGSTNYAESVKGRFTISRDNSKNTLYLQMNSLRAEDTAVYYCTTEPYGSSCPLSGYDTWGQGTLVTVSSGGGGSGGGGSGGGGSDIVMTQSPPTLSLSPGERATLSCRSSKSLLHSNGNTYLYWFQQKPGQSPQLLIYRMSNLASGIPDRFSGSGSGTDFTLTISRLEPEDFAVYYCMQHLEYPFTFGQGTKLEIKRTVAAPSVFIFPPSDEQLKSGTASVVCLLNNFYPREAKVQWKVDNALQSGNSQESVTEQDSKDSTYSLSSTLTLSKADYEKHKVYACEVTHQGLSSPVTKSFNRGEC
heavy: not shown
notes: also called antibody TR-H
B4: TR-E (bispecific antibody, human IgG1, kappa)
light: DIVMTQSPPTLSLSPGERATLSCRSSKSLLHSNGNTYLYWFQQKPGQSPQLLIYRMSNLASGIPDRFSGSGSGTDFTLTISRLEPEDFAVYYCMQHLEYPFTFGQGTKLEIKRTVAAPSVFIFPPSDEQLKSGTASVVCLLNNFYPREAKVQWKVDNALQSGNSQESVTEQDSKDSTYSLSSTLTLSKADYEKHKVYACEVTHQGLSSPVTKSFNRGECGGGGSGGGGSEVQLVQSGAEVKKPGATVKISCKVSGYSITDYLLHWVQQAPGKCLEWMGWIDPEDAKTKYGQKFQSRVTITADTSTDTAYMELSSLRSEDTAVYYCAANSGTGTMDAWGQGTLVTVSSGGGGSGGGGSGGGGSDIVMTQSPATLSVSPGERATLSCKASQNVGSNVDWYQQKPGQSPRVLIYKASIRYTGIPARFSGSGSGTEFTLTISILQSEDFAVYFCMQSKSYPITFGCGTKLEIK
heavy: not shown
notes: also called antibody TR-E
B5: anti-CCR8 control antibody (variable region SEQ ID NO: 9 and SEQ ID NO: 13, constant region of human IgG1 SEQ ID NO: 54 and SEQ ID NO: 55) (antibody, V domains shown)
VH: EVQLVESGGGLVQPGGSLRLSCAASGFTFNTNAMNWVRQAPGKGLEWVGRIRTKSNNYATYYAESVRDRFTISRDDSKNSLYLQMNSLKTEDTAMYYCVRGGYGIRGEYTMDYWGQGTLVTVSS
VL: DIVMTQSPPTLSLSPGERATLSCRSSKSLLHSNGNTYLYWFQQKPGQSPQLLIYRMSNLASGIPDRFSGSGSGTDFTLTISRLEPEDFAVYYCMQHLEYPFTFGQGTKLEIKR
B6: TR-A (bispecific antibody, human IgG1, kappa)
light: DIVMTQSPPTLSLSPGERATLSCRSSKSLLHSNGNTYLYWFQQKPGQSPQLLIYRMSNLASGIPDRFSGSGSGTDFTLTISRLEPEDFAVYYCMQHLEYPFTFGQGTKLEIKRTVAAPSVFIFPPSDEQLKSGTASVVCLLNNFYPREAKVQWKVDNALQSGNSQESVTEQDSKDSTYSLSSTLTLSKADYEKHKVYACEVTHQGLSSPVTKSFNRGEC
heavy: not shown
notes: also called antibody TR-A
B7: TR-B (bispecific antibody, human IgG1, kappa)
light: B6 light
heavy: not shown
notes: also called antibody TR-B
B8: TR-D (bispecific antibody, human IgG1, kappa)
light: B6 light
heavy: not shown
notes: also called antibody TR-D
B9: TR-C (bispecific antibody, human IgG1, kappa)
light: B6 light
heavy: not shown
notes: also called antibody TR-C
B10: anti-TNFR2 control antibody (SEQ ID NO: 52 and SEQ ID NO: 53, constant region of human IgG1 SEQ ID NO: 54 and SEQ ID NO: 55) (antibody, V domains shown)
VH: EVQLVQSGAEVKKPGATVKISCKVSGYSITDYLLHWVQQAPGKGLEWMGWIDPEDAKTKYGQKFQSRVTITADTSTDTAYMELSSLRSEDTAVYYCAANSGTGTMDAWGQGTLVTVSS
VL: DIVMTQSPATLSVSPGERATLSCKASQNVGSNVDWYQQKPGQSPRVLIYKASIRYTGIPARFSGSGSGTEFTLTISILQSEDFAVYFCMQSKSYPITFGQGTKLEIKR
notes: also called positive control 1

Target: T4, human CCR8 on CCR8-CHO-K1 cells (human, UniProt P51685 1-355)
T4 construct: CHO cells overexpressing human CCR8 by lentiviral transduction
Assay: flow cytometry on CCR8-CHO-K1 cells, APC anti-human IgG Fc secondary antibody, Average-APC
Description: The purified antibodies were diluted to 120 nM with FACS buffer, using this as the starting concentration, and then diluted by 5-fold gradient (6 gradients in total). […] The cells were incubated at 4° C. for 60 min, then washed twice with excess FACS buffer. Resuspended the cells in 100 μL FACS Buffer and Added Fluorescent Secondary antibody APC (Biolegend, Cat: 109306) against human IgG FC to the sample. It was incubated for 30 min and washed twice with excess FACS buffer. Resuspended the cells in flow buffer and then detected and analyzed using a flow cytometer.

Binder | binding result | EC50 (read off the curve)
B1 | binds | –
B2 | – | ~0.9 nM
B3 | binds | –
B4 | – | ~1 nM
B5 | – | ~0.3 nM
B6 | binds | –
B7 | binds | –
B8 | binds | –
B9 | – | ~1 nM

Target: T1, human TNFR2 on TNFR2-CHO-K1 cells
Assay: flow cytometry on TNFR2-CHO-K1 cells, APC anti-human IgG Fc secondary antibody, Average-APC
Description: The purified antibodies were diluted to 120 nM with FACS buffer, using this as the starting concentration, and then diluted by 6-fold gradient (7 gradients in total). […] The cells were incubated at 4° C. for 60 min, then washed twice with excess FACS buffer. Resuspended the cells in 100 μL FACS buffer and added fluorescent secondary antibody APC (Biolegend, Cat: 109306) against human IgG FC to the sample. It was incubated for 30 min and washed twice with excess FACS buffer. Resuspended the cells in flow buffer and then detected and analyzed using a flow cytometer.

Binder | EC50 (read off the curve)
B1 | ~0.5 nM
B2 | ~1 nM
B10 | ~0.3 nM
B8 | ~0.1 nM

Target: T2, Human TNFR2 His (manufacturer: SINO, …)
Assay: bridging flow cytometry: antibody on CCR8-CHO-K1 cells captures human TNFR2 His, FITC anti-His (PBS background 15212)
Description: The cells after adding the sample were incubated at 4° C. for 60 min, and then washed twice with excess FACS buffer. Resuspended the cells in 100 μL FACS buffer and added FITC anti His tag (Abcam, Cat: ab1206) fluorescent secondary antibody carrying FITC to the sample. It was incubated for 30 min and washed twice with excess FACS buffer. Resuspended the cells in flow buffer and then detected and analyzed using a flow cytometer.

Binder | Average FITC-A
B1 | 27600
B2 | 33700
B3 | 34200
B4 | 61900
B6 | 40000
B7 | 29000
B8 | 30300
B9 | 89500

Target: T3, Human TNFR2 mFc (manufacturer: Kaixia, …)
Assay: blocking ELISA: human TNFR2 mFc coated, antibody titrated together with human TNF alpha His (blocked ligand), anti-His detection, OD450
Description: (§1) The coating solution was poured off. Each well was washed with 1×PBST at 300 μL, washed 4 times with a plate washer, and patted dry on a flat paper. It was blocked with 3% skim milk powder at 300 μL/well, and incubated at 37° C. for 1 h. The blocking solution was poured off, washed 4 times with a plate washer, and patted dry on a flat paper. Negative control and positive control were set up. […] The positive control and antibody were diluted diluted to 100 nM with 3% skim milk powder as the starting concentration, and then diluted by 3-fold gradient (11 gradients in total), and a blank well was set up and only the diluent was added. […] The liquid in the well was discarded, washed 4 times with a plate washer, and patted dry on a flat paper. The anti his antibody (Abcam, Cat: ab1187) was diluted with 3% skim milk powder at 1:5000, 100 μL was added to each well, and incubated at 37° C. for 1 h. It was washed 6 times with a plate washer, and patted dry on a flat paper. TMB color developing solution was added at 100 μL/well, and wrapped with aluminum foil. Color development was performed at 37° C. in the dark for 8 min. Termination solution 1M HCl was added to terminate the color development reaction at 100 μL/well. Readings were taken at 450 nm on an ELISA reader.

Binder | IC50 (read off the curve)
B8 | ~2 nM

Target: T3, Human TNFR2 mFc (manufacturer: Kaixia, …)
Assay: as above
Remark: another data set of the same source
Description: as §1

Binder | IC50 (read off the curve)
B3 | ~3 nM
